Source: IntAct's records for PubMed 31515488

B1: U3 small nucleolar RNA-associated protein 14 homolog C (Homo sapiens), Q5TAP6 (parent)
chain: MNVNQVAENLALSHQEELVDLPKNYPLSENEDEGDSDGERKHQKLLEAIISLDGKNRRKLAERSEASLKVSEFSVSSEGSGEKLGLADLLEPVKTSSSLATVKKQLNRVKSKKVVELPLNKEKIEQIHREVAFSKTSQVLSKWDPIILKNQQAEQLVFPLGKEQPAIAPIEHALSGWKARTPLEQEIFNLLHKNKQPVTDPLLTPMEKASLQAMSLEEAKMHRAELQRARALQSYYEAKARKEKKIKSKKYHKVVKKGKAKKALKEFEQLQKVNPTVALEEMEKIENARMMERMSLKHQNSGKWAKSKAIMAKYDLEARQAMQEQLAKNKELTQKLQVASESEEEEGGTEVEELLVPHVANEVQMNVDGPNPWMFRSCTSDTKEAATQEDPEQVPELAAHEVSASEAEERPVAEEEILLREFEERQSLRKRSELNQDAEPASSQETKDSSSQEVLSELRALSQKLKEKHQSRKQKASSEGTVPQVQREEPAPEEAEPLLLQRSERVQTLEELEELGKEDCFQNKELPRPVLEGQQSERTPNNRPDAPKEKKEKEQLINLQNFLTTQSPSVRSLAVPTIIEELEDEEERDQRQMIKEAFAGDDVIRDFLKEKREAVEASKPKDVDLTLPGWGEWGGVGLKPSAKKRRQFLIKAPEGPPRKDKNLPNVIISEKRNIHAAAHQVQVLPYPFTHHRQFERTIQTPIGSTWNTQRAFQKLTTPKVVTKPGHIIKPIKAEDVGYQSSSRSDLPVIQRNPKRITTRHNKEEKL
partner: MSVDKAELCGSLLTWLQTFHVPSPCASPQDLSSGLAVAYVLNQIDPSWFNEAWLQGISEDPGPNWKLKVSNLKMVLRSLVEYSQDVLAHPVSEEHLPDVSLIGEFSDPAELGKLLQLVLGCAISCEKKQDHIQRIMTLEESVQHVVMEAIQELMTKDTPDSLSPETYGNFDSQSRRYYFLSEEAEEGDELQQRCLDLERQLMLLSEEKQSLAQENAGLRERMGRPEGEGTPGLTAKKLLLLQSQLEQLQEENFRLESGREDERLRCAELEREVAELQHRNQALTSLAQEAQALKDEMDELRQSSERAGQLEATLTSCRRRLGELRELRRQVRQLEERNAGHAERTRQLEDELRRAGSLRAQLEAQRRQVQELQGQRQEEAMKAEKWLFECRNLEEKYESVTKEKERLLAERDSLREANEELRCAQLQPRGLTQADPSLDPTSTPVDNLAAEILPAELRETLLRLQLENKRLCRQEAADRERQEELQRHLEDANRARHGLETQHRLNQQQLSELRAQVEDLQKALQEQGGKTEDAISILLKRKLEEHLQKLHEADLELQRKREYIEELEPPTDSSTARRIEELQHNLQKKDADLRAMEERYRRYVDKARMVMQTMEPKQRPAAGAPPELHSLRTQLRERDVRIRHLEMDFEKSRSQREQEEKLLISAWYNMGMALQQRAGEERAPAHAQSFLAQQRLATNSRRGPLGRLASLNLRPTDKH
B2: Keratin, type II cytoskeletal 6A (Homo sapiens), P02538 (parent)
chain: MASTSTTIRSHSSSRRGFSANSARLPGVSRSGFSSVSVSRSRGSGGLGGACGGAGFGSRSLYGLGGSKRISIGGGSCAISGGYGSRAGGSYGFGGAGSGFGFGGGAGIGFGLGGGAGLAGGFGGPGFPVCPPGGIQEVTVNQSLLTPLNLQIDPTIQRVRAEEREQIKTLNNKFASFIDKVRFLEQQNKVLETKWTLLQEQGTKTVRQNLEPLFEQYINNLRRQLDSIVGERGRLDSELRGMQDLVEDFKNKYEDEINKRTAAENEFVTLKKDVDAAYMNKVELQAKADTLTDEINFLRALYDAELSQMQTHISDTSVVLSMDNNRNLDLDSIIAEVKAQYEEIAQRSRAEAESWYQTKYEELQVTAGRHGDDLRNTKQEIAEINRMIQRLRSEIDHVKKQCANLQAAIADAEQRGEMALKDAKNKLEGLEDALQKAKQDLARLLKEYQELMNVKLALDVEIATYRKLLEGEECRLNGEGVGQVNISVVQSTVSSGYGGASGVGSGLGLGGGSSYSYGSGLGVGGGFSSSSGRAIGGGLSSVGGGSSTIKYTTTSSSSRKSYKH
partner: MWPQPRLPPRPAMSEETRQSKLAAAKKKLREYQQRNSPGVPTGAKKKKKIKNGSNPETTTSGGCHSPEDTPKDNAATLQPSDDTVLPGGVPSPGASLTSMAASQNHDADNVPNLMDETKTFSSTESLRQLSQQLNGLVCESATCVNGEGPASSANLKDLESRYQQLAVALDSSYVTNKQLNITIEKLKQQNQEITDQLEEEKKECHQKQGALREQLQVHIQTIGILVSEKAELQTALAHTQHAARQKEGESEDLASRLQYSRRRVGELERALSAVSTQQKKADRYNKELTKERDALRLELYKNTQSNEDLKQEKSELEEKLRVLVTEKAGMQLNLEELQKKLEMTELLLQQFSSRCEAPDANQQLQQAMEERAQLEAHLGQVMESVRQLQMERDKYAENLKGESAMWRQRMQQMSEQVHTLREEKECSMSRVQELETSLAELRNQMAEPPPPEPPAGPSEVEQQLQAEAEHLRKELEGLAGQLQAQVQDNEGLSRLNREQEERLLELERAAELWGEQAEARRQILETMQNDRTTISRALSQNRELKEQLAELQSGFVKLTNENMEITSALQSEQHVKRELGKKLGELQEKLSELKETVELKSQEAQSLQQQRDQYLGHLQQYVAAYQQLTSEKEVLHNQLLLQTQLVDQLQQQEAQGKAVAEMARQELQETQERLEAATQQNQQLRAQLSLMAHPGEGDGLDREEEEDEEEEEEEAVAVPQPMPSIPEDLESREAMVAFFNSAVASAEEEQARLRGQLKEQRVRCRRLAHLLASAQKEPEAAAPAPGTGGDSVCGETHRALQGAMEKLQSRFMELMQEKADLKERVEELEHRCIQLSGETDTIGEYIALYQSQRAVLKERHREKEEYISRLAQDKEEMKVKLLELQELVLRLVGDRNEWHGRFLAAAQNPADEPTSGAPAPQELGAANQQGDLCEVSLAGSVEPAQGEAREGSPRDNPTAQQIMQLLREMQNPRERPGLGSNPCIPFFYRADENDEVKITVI
B3: Dynein light chain 2, cytoplasmic (Homo sapiens), Q96FJ2 (parent)
chain: MSDRKAVIKNADMSEDMQQDAVDCATQAMEKYNIEKDIAAYIKKEFDKKYNPTWHCIVGRNFGSYVTHETKHFIYFYLGQVAILLFKSG
partner: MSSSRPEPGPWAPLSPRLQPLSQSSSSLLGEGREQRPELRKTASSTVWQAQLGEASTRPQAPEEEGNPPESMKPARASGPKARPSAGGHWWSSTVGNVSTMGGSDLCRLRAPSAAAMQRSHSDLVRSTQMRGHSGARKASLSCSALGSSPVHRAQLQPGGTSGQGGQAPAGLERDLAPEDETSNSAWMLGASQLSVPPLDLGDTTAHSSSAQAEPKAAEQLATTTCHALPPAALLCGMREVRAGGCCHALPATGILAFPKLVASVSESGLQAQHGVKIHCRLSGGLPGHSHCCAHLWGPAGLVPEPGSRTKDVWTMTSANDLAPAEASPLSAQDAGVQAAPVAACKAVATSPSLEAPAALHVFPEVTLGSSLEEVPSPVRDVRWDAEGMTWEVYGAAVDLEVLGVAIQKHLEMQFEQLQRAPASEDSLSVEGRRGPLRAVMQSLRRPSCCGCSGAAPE

Variants of: B1
Details: with hook2_human HOOK2, Q96ED9

| Variant | effect of a mutation on the interaction |
| --- | --- |
| A652T | with no effect |
| V570M | with no effect |
| R672H | with no effect |
| V109D | with no effect |
| R319H | with no effect |

Variants of: B2
Details: with goga2_human GOLGA2, Q08379

| Variant | effect of a mutation on the interaction |
| --- | --- |
| L210M | with no effect |
| A335T | with no effect |
| R559G | with no effect |
| R415H | with no effect |
| T552S | with no effect |
| V523F | with no effect |

Variants of: B3
Details: with grin2_human GPRIN2, O60269

| Variant | effect of a mutation on the interaction |
| --- | --- |
| N33S | with no effect |
